# Source: PMC12396215
# What was measured:
# [1] = molecular target: extracellular domain of EpCAM (EpCAM ECD) (UniProt P16422); test: other fluorescence titration; Kd of the probe for EpCAM ECD calculated from the increase of SiP fluorescence (Figure S10)
# [2] = molecular target: extracellular domain of EpCAM (EpCAM ECD) (UniProt P16422); test: fluorescence increase of the DARPin-SiP conjugate on adding the antigen (plate reader); probe pretreated with DTT; probe 500 nM, EpCAM ECD 1 uM
# [3] = molecular target: extracellular domain of EpCAM (EpCAM ECD) (UniProt P16422); test: fluorescence increase of the DARPin-SiP conjugate on adding the antigen (plate reader); conjugate 500 nM (not pretreated with DTT), EpCAM ECD 1 uM; fold activation = fluorescence at 31 min divided by that just before EpCAM ECD
# UniProt P16422, sequence (P16422 24-265): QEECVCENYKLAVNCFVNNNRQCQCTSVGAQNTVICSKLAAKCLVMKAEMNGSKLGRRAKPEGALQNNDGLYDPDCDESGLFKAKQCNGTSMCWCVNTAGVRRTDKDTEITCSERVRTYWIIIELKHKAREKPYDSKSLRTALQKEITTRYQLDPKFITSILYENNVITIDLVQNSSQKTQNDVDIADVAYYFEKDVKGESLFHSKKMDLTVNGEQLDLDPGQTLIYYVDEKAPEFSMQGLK
substance,measurement,setting,value
Ec1 K152C-5-Gly SiP conjugate (designed binder),Kd,[1],238 nM
same,fold activation of SiP fluorescence on adding EpCAM ECD,[2],> 12 fold
same,fold increase of SiP fluorescence on adding EpCAM ECD,[3],7 fold
